One assay concerns 2G12. The conditions noted are these: 2G12 at 1:10000 dilution; earlier experiment, different version of the microarray; cited from earlier work.
Another assay relates to PGT 128. As to the kind of experiment: Neoglycolipid microarray binding, PGT 128. The conditions noted are these: PGT 128 at 10 μg/ml pre-complexed with biotinylated anti-human-IgG; 5 fmol/spot. As to the method:
(§1) The microarrays (designated N-glycan-related Array Set 1) consisted of NGLs prepared by reductive amination (70) or oxime ligation (71) (Table S5). These were robotically printed onto nitrocellulose-coated glass slides as described (72), each at two levels (2 and 5 fmol/spot) in duplicate. The binding assays (70) were performed at ambient temperature. The PGTs 127 and 128 were pre-complexed with biotinylated anti-human-IgG (Vector) at a 1:3 ratio, w/w, before applying onto the slides at a final concentration of 10 μg/ml. Biotinylated ConA (Vector) was tested at 0.5 μg/ml. Binding was detected with Alexa-Fluor 647 labelled streptavidin (Molecular Probes) at 1 μg/ml. Microarray data analysis was performed with dedicated software. Binding signals were oligosaccharide dose-related. Results at 5 fmol/spot with selected oligomannose NGLs (prepared by reductive amination) are in FIG. 9A, and the full data with the 50 NGLs are shown in Table S6. Included for comparison are the results with human 2G12 (Polymun Scientific) taken from an earlier experiment performed using a different version of microarrays (73). Antibody 2G12 was analyzed at 1:10000 dilution (without pre-complexation), and the binding was detected with biotinylated anti-human-IgG followed by Alexa-Fluor 647 labelled streptavidin.

A further assay deals with PGT 127. Put plainly: Neoglycolipid microarray binding, PGT 127. The conditions noted are these: PGT 127 at 10 μg/ml pre-complexed with biotinylated anti-human-IgG; 5 fmol/spot. As to the method: as §1
A further assay deals with T1, plant lectin ConA (Canavalia ensiformis, UniProt P02866).
T1 construct: purchased Vector
Put plainly: Neoglycolipid microarray binding, ConA. The conditions noted are these: biotinylated ConA at 0.5 μg/ml. As for the experimental part:
as §1

Assay [1] has as its target HIV-1 JR-FL envelope (Env) on pseudovirus (HIV-1 JR-FL). Put plainly: cell-based or functional assay.
Assay [2] concerns the target HIV-1 JR-CSF envelope (Env) on pseudovirus (HIV-1 JR-CSF) (UniProt P20871). Put plainly: cell-based or functional assay.
Assay [3] concerns the target gp120 JR-FL (HIV-1 JR-FL). As to the kind of experiment: gp120 ELISA. Background: In an ELISA, binding on a coated surface is turned into a signal by an enzyme label.
Assay [4] has as its target gp120 JR-CSF (HIV-1 JR-CSF) (UniProt P20871). As to the kind of experiment: gp120 ELISA.
The target in assay [5] is HIV-1 BaL envelope (Env) on pseudovirus (HIV-1 BaL). As to the kind of experiment: cell-based or functional assay.

Turning to `CCCCCCCCCCCCCCCCOCC(COP(=O)(O)OCCNCC(NC(C)=O)C(O)C(OC1OC(CO)C(O)C(O)C1O)C(O)CO)OCCCCCCCCCCCCCCCC` (stereo not drawn) [Man1GN1-DH, Manβ-4GlcNAc-DH], the “Fluorescence signal intensity 2G12” value with 2G12 was 101. Also, the “Fluorescence signal intensity 128” value in the assay with PGT 128 is “— (Signal less than 1)”. Further, the “Fluorescence signal intensity 127” value in the assay with PGT 127 is on record as “— (Signal less than 1)”. Further, the “Fluorescence signal intensity ConA” value at plant lectin ConA is reported as “— (Signal less than 1)”.
On to `CCCCCCCCCCCCCCCCOCC(COP(=O)(O)OCCNCC(OC1OC(CO)C(O)C(O)C1O)C(O)C(O)C(O)CO)OCCCCCCCCCCCCCCCC` (stereo not drawn) [Man2(α2)-DH, Manα-2Man-DH], for which the “Fluorescence signal intensity 2G12” value in the assay with 2G12 is listed as 73. For the same molecule, the “Fluorescence signal intensity 128” value with PGT 128 is reported as “— (Signal less than 1)”. Further, the “Fluorescence signal intensity 127” value in the assay on PGT 127 is reported as “— (Signal less than 1)”. The “Fluorescence signal intensity ConA” value at plant lectin ConA was “— (Signal less than 1)”.
`CCCCCCCCCCCCCCCCOCC(COP(=O)(O)OCCNCC(O)C(OC1OC(CO)C(O)C(O)C1O)C(O)C(O)CO)OCCCCCCCCCCCCCCCC` (stereo not drawn) [Man2(α3)-DH, Manα-3Man-DH]: the “Fluorescence signal intensity 2G12” value with 2G12 is 136. Also, the “Fluorescence signal intensity 128” value with PGT 128 is 82. Further, the “Fluorescence signal intensity 127” value in the assay with PGT 127 is “— (Signal less than 1)”. Moreover, on plant lectin ConA, the “Fluorescence signal intensity ConA” value was “— (Signal less than 1)”.
Regarding `CCCCCCCCCCCCCCCCOCC(COP(=O)(O)OCCNCC(O)C(O)C(O)C(O)COC1OC(CO)C(O)C(O)C1O)OCCCCCCCCCCCCCCCC` (stereo not drawn) [Man2(α6)-DH, Manα-6Man-DH], the “Fluorescence signal intensity 2G12” value in the assay on 2G12 is 205. Besides, the “Fluorescence signal intensity 128” value in the assay with PGT 128 was “— (Signal less than 1)”. The “Fluorescence signal intensity 127” value with PGT 127 is recorded as “— (Signal less than 1)”. In addition, the “Fluorescence signal intensity ConA” value at plant lectin ConA was found to be 608.
For `CCCCCCCCCCCCCCCCOCC(COP(=O)(O)OCCNCC(NC(C)=O)C(O)C(OC1OC(CO)C(O)C(OC2OC(CO)C(O)C(O)C2O)C1O)C(O)CO)OCCCCCCCCCCCCCCCC` (stereo not drawn) [Man2GN1-DH, Manα-3Manβ-4GlcNAc-DH], the “Fluorescence signal intensity 2G12” value with 2G12 was “— (Signal less than 1)”. Further, the “Fluorescence signal intensity 128” value in the assay on PGT 128 is given as 16. In addition, the “Fluorescence signal intensity 127” value in the assay with PGT 127 is “— (Signal less than 1)”. For the same molecule, the “Fluorescence signal intensity ConA” value on plant lectin ConA was found to be 575.
In the case of `CCCCCCCCCCCCCCCCOCC(COP(=O)(O)OCCNCC(NC(C)=O)C(O)C(OC1OC(CO)C(OC2OC(COC3OC(CO)C(O)C(O)C3O)C(O)C(O)C2O)C(O)C1NC(C)=O)C(O)CO)OCCCCCCCCCCCCCCCC` (stereo not drawn) [Man2aGN2-DH, Manα-6Manβ-4GlcNAcβ-4GlcNAc-DH], in the assay with 2G12, the “Fluorescence signal intensity 2G12” value is on record as “— (Signal less than 1)”. Also, the “Fluorescence signal intensity 128” value with PGT 128 is “— (Signal less than 1)”. Besides, the “Fluorescence signal intensity 127” value with PGT 127 is recorded as “— (Signal less than 1)”. In addition, the “Fluorescence signal intensity ConA” value on plant lectin ConA was 1,923.
As to PGT 128 IgG variant HC A30Q (antibody), the results for the Fold change in neutralization (IC50 variant/IC50 WT antibody) in assay [1] and in assay [2] were 11.4 fold and 2.4 fold, respectively. The fold change in gp120 binding (EC50 variant/EC50 WT) came to 1.5 fold in assay [3] and 1.9 fold in [4].
As for PGT 128 IgG variant HC A70D (antibody), the Fold change in neutralization (IC50 variant/IC50 WT antibody) in [2] is 1.9 fold. The fold change in gp120 binding (EC50 variant/EC50 WT) in assay [3] was found to be 1 fold; in assay [4], 0.5 fold.
Consider PGT 128 IgG variant HC C32A (antibody), for which the Fold change in neutralization (IC50 variant/IC50 WT antibody) in [1] was above 3000 fold; in assay [5], above 4000 fold; in assay [2], above 2000 fold.
The like results for “PGT 128 IgG variant HC C32A C52bA (antibody)” were, in that order, above 3000 fold, above 4000 fold and above 2000 fold.
In the same order, the values of PGT 128 IgG variant HC C52bA (antibody) are above 3000 fold, above 4000 fold and above 2000 fold.
Turning to “PGT 128 IgG variant HC D100dA (antibody)”, the Fold change in neutralization (IC50 variant/IC50 WT antibody) in assay [1] turned out to be 0.3 fold; in assay [2], 0.5 fold. The fold change in gp120 binding (EC50 variant/EC50 WT) in [3] and in assay [4] was 0.1 fold throughout.
Regarding PGT 128 IgG variant HC F79A (antibody), the Fold change in neutralization (IC50 variant/IC50 WT antibody) in [2] is 0.9 fold. The fold change in gp120 binding (EC50 variant/EC50 WT) amounted to 0.6 fold in assay [3] and 0.5 fold in assay [4].
On to PGT 128 IgG variant HC K64A (antibody), for which the Fold change in neutralization (IC50 variant/IC50 WT antibody) amounted to 1.3 fold in assay [1] and 1.2 fold in assay [2]. For the same molecule, the fold change in gp120 binding (EC50 variant/EC50 WT) in assay [3] is 0.4 fold; in assay [4], 0.8 fold.
In the same order, the values of PGT 128 IgG variant HC K75A (antibody) are 2.9 fold, 2.9 fold, 1.6 fold and 2.1 fold.
In the same order, the values of PGT 128 IgG variant HC P74A (antibody) are 1.2 fold, 0.8 fold, 0.8 fold and 0.9 fold.
Take PGT 128 IgG variant HC S28A (antibody): the Fold change in neutralization (IC50 variant/IC50 WT antibody) amounted to 0.9 fold in assay [1] and 1.2 fold in [2]. The fold change in gp120 binding (EC50 variant/EC50 WT) in assay [3] worked out at 0.6 fold; in [4] it was 0.8 fold.
In the same order, the values of PGT 128 IgG variant HC T73A (antibody) are 77.6 fold, 1.6 fold, 2.2 fold and 1.6 fold.
In the same order, the values of “PGT 128 IgG variant HC T100cA (antibody)” are 1.2 fold, 1.5 fold, 0.9 fold and 1.2 fold.
PGT 128 IgG variant LC D95aA (antibody): the figures for the Fold change in neutralization (IC50 variant/IC50 WT antibody) in [1], in assay [5] and in [2] were above 3000 fold, above 4000 fold and 68.5 fold, respectively.
Take PGT 128 IgG variant LC N94A (antibody): the Fold change in neutralization (IC50 variant/IC50 WT antibody) in [1] stood at 1.3 fold; in [2], 3.5 fold. The fold change in gp120 binding (EC50 variant/EC50 WT) is 1.1 fold in assay [3] and 0.7 fold in [4].
Turning to PGT 128 IgG variant LC W95A (antibody), the Fold change in neutralization (IC50 variant/IC50 WT antibody) is above 3000 fold in assay [1], above 4000 fold in [5] and above 2000 fold in assay [2].

The record behind these values is patent publication US9999664B2, “HIV-1 gp120 mini V3 loop and uses thereof” (The Scripps Research Institute, priority 2011, dated 2018).
